Assay results taken from US20190023782A1 (SHANGHAI JUNSHI BIOSCIENCES, published 2019).
Residue numbers refer to the chain shown, from its start. Each block holds one binder with its values, some of them ahead of it.

What was measured:
[1] = target: T1, rh-PD-1 recombinant protein (human, UniProt Q15116 25-170, limits assumed); test: ELISA, rh-PD-1 coated at 1 ug/ml, antibody at 1 ug/ml
T1 construct: also called human-derived PD-1; PD-1 protein
Protocol: The next day, solution was removed from the wells and the wells were washed three times with a washing buffer (PBS+0.5% TWEEN). PBS solution containing 3% BSA was added to the wells to block for 20 minutes. After washing three times with the washing buffer, 100 ul of each antibody clone was added at 1 ug/ml and incubated at room temperature for 1 hour. After three washes with the washing buffer, HRP cross-linked goat anti mouse antibody (Jackson Immunoresearch) was diluted in the washing buffer 1: 0000, and added to the sample wells and incubated at room temperature for 1 hour. After three washes with the washing buffer, 50 ul TMB (tetramethyl benzidine) substrate solution was added to develop the color. The color reaction was terminated after the reaction was continued for 10 minutes at room temperature by adding 25 ul of 0.5M sulfuric acid solution to the reaction mixture. The absorbance was then measured at 450 nm.

[2] = target: T1, rh-PD-1 recombinant protein; test: ELISA on PD-1 protein
[3] = target: T1, rh-PD-1 recombinant protein; test: ELISA, PD-1 coated at 1 ug/ml, goat anti-human HRP detection
Protocol: (§1) 1 ug /ml of human-derived PD-1, Macaca fascicularis PD-1, and mouse-derived PD-1 (Sinobiological) in the carbonate buffer solution (0.05 M PH9) were prepared and used to coat the wells of the 96-well flat-bottom plates at 4° C. overnight. The next day, solution was removed from the wells and the wells were washed three times with a washing buffer. PBS solution containing 3% BSA was added to block the wells for 20 minutes. […] The mixture was incubated at room temperature for 1 hour and then washed three times with a washing buffer. A HRP conjugated goat anti human antibody (Jackson Immunoresearch) was first diluted to 1: 10000 with the washing buffer and then added to the wells to incubate at room temperature for 1 hour. After washing three times with the washing buffer, 50 ul TMB substrate solution was added to the wells to develop the color. After 10 minutes at room temperature, the color development reaction was terminated with 25 ul 0.5M sulfuric acid solution and the absorbance was read at 450 nm.

[4] = target: T2, Macaca fascicularis PD-1 (Macaca fascicularis); test: as above
T2 construct: also called cyno PD-1
T2 chain: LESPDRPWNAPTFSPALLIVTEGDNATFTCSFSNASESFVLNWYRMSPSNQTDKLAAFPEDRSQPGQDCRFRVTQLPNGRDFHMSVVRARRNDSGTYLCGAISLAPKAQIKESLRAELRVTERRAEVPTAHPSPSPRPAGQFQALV
Protocol: as §1

T1 sequence (Q15116 25-170 limits assumed): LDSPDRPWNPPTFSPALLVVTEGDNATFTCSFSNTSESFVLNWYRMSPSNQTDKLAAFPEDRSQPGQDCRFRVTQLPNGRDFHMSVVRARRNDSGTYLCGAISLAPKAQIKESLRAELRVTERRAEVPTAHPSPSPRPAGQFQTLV

B2: H1L1 (antibody, V domains shown)
VH: QGQLQQSGAELVRPGASVTLTCKASGYTFTDYEMHWVKQTPIHGLEWIGVIESETGGTAYNQKFKGKAKLTADKSSSTAYMELRSLTSEDSAVYYCTREGITTVATTYYWYFDVWGTGTTVTVSS
VL: DVLMTQTPLSLPVSLGDQASISCRSSQSIVHSNGNTYLEWYLQKPGQSPELLIYKVYNRFSGVPDRFSGSGSGTDFTLKISRVEAEDLGVYYCFQGSHVPFTFGSGTKLEIK
notes: also called original antibody 1 (heavy chain 1, light chain 1)
- EC50 [2]: 0.338 nM

B5: H10L1 (antibody, V domains shown)
VH: QVQLQQSGAELVRPGASVTLSCKASGYTFTDYEMHWVKQTPVHGLEWIGAIDPETGGAAYNQKFKGKAILTADKSSSTAYMELRSLTSEDSAVYYCTREGITTSVVTYYWYFDVWGTGTTVTVSS
VL: B2 VL
notes: also called recombinant antibody H10L1 (heavy chain 10, light chain 1)
- EC50 [2]: 0.528 nM

B6: H1L10 (antibody, V domains shown)
VH: B2 VH
VL: B2 VL with E50K, Y57S, K79R, A85P, F101L
notes: also called recombinant antibody H1L10 (heavy chain 1, light chain 10)
- EC50 [2]: 0.27 nM

Second part, the binder after the results:

- binding result [1]: binds
B1: Clone 11 (antibody, V domains shown)
VH: QVTLKESGPGILQPSQTLSLTCSFSGFSLSTFGMGVGWIRQPSGKGLEWLAHIWWDDDKYYNPALKSRLTISKNTSKNQVFLKIANVDTEDTATYYCARIEERFRWYFDVWGTGTTVTVSS
VL: RAGWTQESALTTSPGETVTLTCRSSTGAITTSNYANWVQEKPDHLFTGLIGGTNNRAPGVPARFSGSLIGDKAALTITGAQTEDEAIYFCALWYSNHWVFGGGTKLTVL
notes: Mouse hybridoma antibody; also called antibody candidate Clone 11

- EC50 [2]: 0.426 nM
B3: H10L10 (antibody, V domains shown)
VH: B5 VH
VL: B2 VL with E50K, Y57S, K79R, A85P, F101L
notes: also called original antibody 10 (heavy chain 10, light chain 10)

- binding result [3]: binds
- binding result [4]: binds
B4: humanized antibody Clone 41 (antibody, V domains shown)
VH: QGQLVQSGAEVKKPGASVKVSCKASGYTFTDYEMHWVRQAPGQGLEWMGVIESETGGTAYNQKFQGRVTLTADKSSSTAYMELSSLRSEDTAVYYCTREGITTVATTYYWYFDVWGQGTLVTVSS
VL: B2 VL with L3V, T7S, S14T, D17Q, Q18P, E50Q, Y57S, L88V, F101L, S105Q
notes: Humanized antibody; also called hu41
